For orientation: Kd means the free concentration of one partner at which half of the binding sites on the other are occupied at equilibrium, for simple one-to-one binding. Low readings indicate a tighter complex, high ones a looser complex.

The data set deals with thrombin (alpha-thrombin) (Homo sapiens, UniProt P00734;P00734 P00734:315-363,P00734:364-622). Put plainly: filter.
ACTGCCUAGGTTGGGTAGGGTGGTGGCAGT (XNA, 2'-OMe U7, rest DNA) [ARC2619]: binding was put at a Kd of 0.215 nM.

With GCCTAGGTTGGGTAGGGTGGTGGC (XNA, 2'-OMe 1-3,22,24, rest DNA) [ARC2845], the Kd was determined as 0.86 nM.

For ACTGCCTAGGTTGGGTAGGGTGGTGGCAGT (ssDNA, PS linkage between nt 2 and 3) [ARC2645], binding was put at a Kd of 0.167 nM. Against the preceding molecule, the Kd is about 5.1-fold lower.

ACTGCCTAGGTTGGGTAGGGTGGTGGCAGT (ssDNA, PS between G10 and T11) [ARC2653] showed a Kd of 0.066 nM.

In turn, GCTGCCTAGGTTGGGTAGGGTGGTGGCAGC (ssDNA) [ARC2170] yielded an equilibrium dissociation constant (Kd) of 0.19 nM.

ACTGCCTAGGTTGGGTAGGGTGGTGGCAGT (XNA, 2'-OMe G25, rest DNA) [ARC2637] had an equilibrium dissociation constant (Kd) of 0.118 nM.

Take ACTGCCTAGGTTGGGUAGGGTGGTGGCAGT (XNA, 2'-OMe U16, rest DNA) [ARC2628]: the dissociation constant (Kd) is 0.207 nM.

For ACTGCCTAGGTTGGGTAGGGTGGTGGCAGT (XNA, 2'-OMe G23, rest DNA) [ARC2635], the affinity, expressed as Kd, was 0.248 nM.

In turn, UGCCTAGGTTGGGTAGGGTGGTGGCA (XNA, 2'-OMe 1-4,23,25,26, rest DNA) [ARC2838] yielded a Kd of 0.77 nM. This Kd is about 3.1-fold higher than that of the molecule before.

For the molecule ACTGCCTAGGTTGGGTAGGGTGGTGGCAGT (ssDNA, PS between T16 and A17) [ARC2659], binding was put at a Kd of 0.452 nM.

Molecule ATGATTAGGTTGGGTAGGGTGGTATCAT (ssDNA) [ARC2833] had a Kd of 2.16 nM. Against the preceding molecule, the Kd is about 4.8-fold higher.

For the molecule CUGCCTAGGTTGGGTAGGGTGGTGGCAG (XNA, 2'-OMe 1-5,24,26-28, rest DNA) [ARC2831], the Kd stood at 5.12 nM. This Kd is about 2.4-fold higher than that of the molecule before.

The molecule AAUGAUTAGGTTGGGTAGGGTGGTAUCAUU (XNA, 2'-OMe 1-6,25-30, rest DNA) [ARC2828] came in with a Kd of 0.33 nM.

The molecule ACTGCCTAGGTTGGGTAGGGTGGTGGCAGT (XNA, 2'-OMe G18, rest DNA) [ARC2630] registered a Kd of 5.24 nM.

AUGAUTAGGTTGGGTAGGGTGGTAUCAU (XNA, 2'-OMe 1-5,24-28, rest DNA) [ARC2835] registered a dissociation constant (Kd) of 1.27 nM. Compared with the last molecule, the Kd is about 4.1-fold lower.

Take AATGATTAGGTTGGGTAGGGTGGTATCATT (ssDNA) [ARC2826]: the affinity, expressed as Kd, was 0.77 nM.

For UGCCUAGGTTGGGTAGGGTGGUGGCA (XNA, 2'-OMe 1-5,22,23,25,26, rest DNA) [ARC2837], the Kd was 2.61 nM. Compared with the last molecule, the Kd is about 3.4-fold higher.

With CUGCCUAGGTTGGGTAGGGTGGUGGCAG (XNA, 2'-OMe 1-6,23,24,26-28, rest DNA) [ARC2830], the affinity, expressed as Kd, was 15.3 nM.

ACTGCCTAGGTTGGGTAGGGTGGTGGCAGT (XNA, 2'-OMe G9, rest DNA) [ARC2621] came in with a Kd of 1.52 nM.

In the case of ACTGCCTAGGTTGGGTAGGGTGGTGGCAGT (XNA, 2'-OMe G13, rest DNA) [ARC2625], binding was characterised by a dissociation constant (Kd) of 0.568 nM.

CCTCAGGGATGGTGTGGGTGGCTGAGG (ssDNA) [ARC1985] had an equilibrium dissociation constant (Kd) of 5.7 nM.

In turn, ACTGCCTAGGTTGGGTAGGGTGGTGGCAGT (XNA, 2'-OMe G10, rest DNA) [ARC2622] yielded a dissociation constant (Kd) of 0.038 nM.

In turn, AUGAUUAGGTTGGGTAGGGTGGUAUCAU (XNA, 2'-OMe 1-6,23-28, rest DNA) [ARC2834] displayed a Kd of 10.3 nM.

GATTAGGTTGGGTAGGGTGGTAUC (XNA, 2'-OMe 1-2,23-24, rest DNA) [ARC2850] gave a dissociation constant Kd of 0.33 nM. Compared with the last molecule, the Kd is about 31-fold lower.

With ACUGCCTAGGTTGGGTAGGGTGGTGGCAGT (XNA, 2'-OMe U3, rest DNA) [ARC2615], binding was characterised by a dissociation constant (Kd) of 0.094 nM. This Kd lies about 3.5-fold lower than the previous one.

ACTGCCTAGGTTGGGTAGGGTGGTGGCAGT (XNA, 2'-OMe A28, rest DNA) [ARC2640]: the Kd is 0.174 nM. Compared with the last molecule, the Kd is about 1.9-fold higher.

With CTGCCTAGGTTGGGTAGGGTGGTGGCAG (ssDNA) [ARC2171], the dissociation constant (Kd) was determined as 0.221 nM.

The molecule UGATTAGGTTGGGTAGGGTGGTAUCA (XNA, 2'-OMe 1-3,24-26, rest DNA) [ARC2843] showed a Kd of 0.62 nM.

As for AUGATTAGGTTGGGTAGGGTGGTAUCAU (XNA, 2'-OMe 1-4,25-28, rest DNA) [ARC2836], binding was put at a Kd of 0.96 nM.

In turn, ACTGCCTAGGTTGGGTAGGGTGGTGGCAGT (ssDNA, PS between G23 and T24) [ARC2666] registered a dissociation constant (Kd) of 0.992 nM. This Kd and that of the molecule before are within 1.5-fold of each other.

ACTGCCTAGGTTGGGTAGGGTGGTGGCAGT (XNA, 2'-OMe C2, rest DNA) [ARC2614] had a Kd of 0.052 nM.

In turn, ACTGCCTAGGTTGGGTAGGGTGGTGGCAGT (XNA, 2'-OMe G19, rest DNA) [ARC2631] came in with an equilibrium dissociation constant (Kd) of 4.96 nM.

ACTGCCTAGGTTGGGTAGGGTGGTGGCAGT (XNA, 2'-OMe G14, rest DNA) [ARC2626] yielded a Kd of 1.59 nM.

In the case of ACTGCCTAGGTTGGGTAGGGTGGUGGCAGT (XNA, 2'-OMe U24, rest DNA) [ARC2636], the Kd was 0.102 nM.

Consider TGATTAGGTTGGGTAGGGTGGTATCA (ssDNA) [ARC2840], for which the Kd amounted to 0.25 nM.

AAUGAUUAGGTTGGGTAGGGTGGUAUCAUU (XNA, 2'-OMe 1-7,24-30, rest DNA) [ARC2827] came in with a Kd of 4.06 nM.

Turning to ACTGCCTAGGTTGGGTAGGGTGGTGGCAGT (XNA, 2'-OMe G4, rest DNA) [ARC2616], binding was characterised by a dissociation constant (Kd) of 0.091 nM.

With ACTGCCTAGGTTGGGTAGGGTGGTGGCAGU (XNA, 2'-OMe U30, rest DNA) [ARC2642], binding was put at a Kd of 0.094 nM.

Take ACUGCCTAGGTTGGGTAGGGTGGTGGCAGU (XNA, 2'-OMe 1-6,25,27-30, rest DNA) [ARC2824]: the dissociation constant (Kd) is 0.73 nM.

UGAUUAGGTTGGGTAGGGTGGUAUCA (XNA, 2'-OMe 1-5,22-26, rest DNA) [ARC2841] gave a Kd of 3.55 nM.

GATTAGGTTGGGTAGGGTGGTATC (ssDNA) [ARC2847] came in with an equilibrium dissociation constant (Kd) of 0.21 nM.

Turning to UGCCTAGGTTGGGTAGGGTGGTGGCA (XNA, 2'-OMe 1-3,25,26, rest DNA) [ARC2839], the dissociation constant (Kd) amounted to 0.58 nM.

ACTGCCTAGGTTGGGTAGGGTGGTGGCAGT (XNA, 2'-OMe G22, rest DNA) [ARC2634] displayed a Kd of 0.549 nM.

Regarding ACTGCCTAGGTTGGGTAGGGTGGTGGCAGT (XNA, 2'-OMe G29, rest DNA) [ARC2641], the affinity, expressed as Kd, was 0.171 nM. Compared with the last molecule, the Kd is about 3.2-fold lower.

The molecule GCCUAGGTTGGGTAGGGTGGUGGC (XNA, 2'-OMe 1-4,21,22,24, rest DNA) [ARC2844] registered an equilibrium dissociation constant (Kd) of 2.65 nM.

For the molecule GCCTAGGTTGGGTAGGGTGGTGGC (XNA, 2'-OMe 1-2,24, rest DNA) [ARC2846], the equilibrium dissociation constant (Kd) is 0.27 nM.

Molecule ACTGCCTAGGTTGGGTAGGGTGGTGGCAGT (XNA, 2'-OMe C6, rest DNA) [ARC2618] came in with a Kd of 0.121 nM.

Molecule ACUGCCUAGGTTGGGTAGGGTGGUGGCAGU (XNA, 2'-OMe 1-7,24,25,27-30, rest DNA) [ARC2823] came in with an equilibrium dissociation constant (Kd) of 9.1 nM.

In turn, ACTGCCTAGGTTGGGTAGGGTGGTGGCAGT (ssDNA, PS between T12 and G13) [ARC2655] came in with a Kd of 0.079 nM. This Kd is about 120-fold lower than that of the molecule before.

Molecule GAUTAGGTTGGGTAGGGTGGTAUC (XNA, 2'-OMe 1-3,22-24, rest DNA) [ARC2849] returned a Kd of 0.2 nM.

In turn, ACTGCCTAGGTTGGGTAGGGTGGTGGCAGT (XNA, 2'-OMe C27, rest DNA) [ARC2639] returned a Kd of 0.08 nM.

In turn, ACUGCCTAGGTTGGGTAGGGTGGTGGCAGU (XNA, 2'-OMe 1-5,27-30, rest DNA) [ARC2825] came in with a Kd of 1.03 nM.

Take UGAUTAGGTTGGGTAGGGTGGTAUCA (XNA, 2'-OMe 1-4,23-26, rest DNA) [ARC2842]: the equilibrium dissociation constant (Kd) was 1.06 nM. This Kd and that of the molecule before are within 1.5-fold of each other.

For the molecule GAUUAGGTTGGGTAGGGTGGUAUC (XNA, 2'-OMe 1-4,21-24, rest DNA) [ARC2848], the Kd was 2.09 nM. Against the preceding molecule, the Kd is about 2-fold higher.

As to ACTGCCTAGGTTGGGTAGGGTGGTGGCAGT (XNA, 2'-OMe A8, rest DNA) [ARC2620], the Kd is 7.1 nM.

With ACTGCCTAGGTTGGGTAGGGTGGTGGCAGT (XNA, 2'-OMe G26, rest DNA) [ARC2638], the dissociation constant (Kd) came out at 0.192 nM. This Kd is about 37-fold lower than that of the molecule before.

ACTGCCTAGGUTGGGTAGGGTGGTGGCAGT (XNA, 2'-OMe U11, rest DNA) [ARC2623] yielded a Kd of 0.746 nM. Against the preceding molecule, the Kd is about 3.9-fold higher.

As for CUGCCTAGGTTGGGTAGGGTGGTGGCAG (XNA, 2'-OMe 1-4,26-28, rest DNA) [ARC2832], the Kd was found to be 1.88 nM.

Turning to AAUGATTAGGTTGGGTAGGGTGGTAUCAUU (XNA, 2'-OMe 1-5,26-30, rest DNA) [ARC2829], the Kd came out at 0.93 nM.

Take ACTGCCTAGGTTGGGTAGGGTGGTGGCAGT (XNA, 2'-OMe A1, rest DNA) [ARC2613]: binding was characterised by a dissociation constant (Kd) of 0.173 nM.

Source of the values: patent US20090221680, “Aptamers that bind thrombin with high affinity” (published 2009).
